Measurements reported in patent publication US20220048967A1 (published 2022).
Numbering of substitutions follows the chain as printed. Numbered stars: 1 amine (or outer) side, 2 acyl side, 3 side chain; on linkers, the order of the positions; unused ones are H or OH. Square brackets hold non-standard residues; d marks the D form. Side chains are listed from the residue outwards. Ends that are not written are not given here. * marks the point of attachment. C20 diacid = O=C(O)CCCCCCCCCCCCCCCCCCC(=O)*; C18 diacid = O=C(O)CCCCCCCCCCCCCCCCC(=O)*; γGlu = O=C(O)[C@H](CCC(=O)[*:2])N[*:1]; AEEA = NCCOCCOCC(=O)O; Aib = CC(C)(N)C(=O)O

B1: Example 330 (peptide)
peptide: Y[Aib]EGTFTSDYSILLDEK([AEEA-AEEA-γGlu-C20 diacid])AQ[Aib]AFIEYLIAGGPSSGAPPPS-NH2
modifications: N-terminus assumed
SMILES: CC[C@H](C)[C@H](NC(=O)[C@H](CC(C)C)NC(=O)[C@H](Cc1ccc(O)cc1)NC(=O)[C@H](CCC(=O)O)NC(=O)[C@@H](NC(=O)[C@H](Cc1ccccc1)NC(=O)[C@H](C)NC(=O)C(C)(C)NC(=O)[C@H](CCC(N)=O)NC(=O)[C@H](C)NC(=O)[C@H](CCCCNC(=O)COCCOCCNC(=O)COCCOCCNC(=O)CC[C@H](NC(=O)CCCCCCCCCCCCCCCCCCC(=O)O)C(=O)O)NC(=O)[C@H](CCC(=O)O)NC(=O)[C@H](CC(=O)O)NC(=O)[C@H](CC(C)C)NC(=O)[C@H](CC(C)C)NC(=O)[C@@H](NC(=O)[C@H](CO)NC(=O)[C@H](Cc1ccc(O)cc1)NC(=O)[C@H](CC(=O)O)NC(=O)[C@H](CO)NC(=O)[C@@H](NC(=O)[C@H](Cc1ccccc1)NC(=O)[C@@H](NC(=O)CNC(=O)[C@H](CCC(=O)O)NC(=O)C(C)(C)NC(=O)[C@@H](N)Cc1ccc(O)cc1)[C@@H](C)O)[C@@H](C)O)[C@@H](C)CC)[C@@H](C)CC)C(=O)N[C@@H](C)C(=O)NCC(=O)NCC(=O)N1CCC[C@H]1C(=O)N[C@@H](CO)C(=O)N[C@@H](CO)C(=O)NCC(=O)N[C@@H](C)C(=O)N1CCC[C@H]1C(=O)N1CCC[C@H]1C(=O)N1CCC[C@H]1C(=O)N[C@@H](CO)C(N)=O
B2: Example 320 (peptide)
peptide: Y[Aib]EGTFTSDYSILLDKK([AEEA-AEEA-γGlu-C18 diacid])AQ[Aib]DFIEYLIEGGPSSG-NH2
modifications: N-terminus assumed
SMILES: CC[C@H](C)[C@H](NC(=O)[C@H](CC(C)C)NC(=O)[C@H](Cc1ccc(O)cc1)NC(=O)[C@H](CCC(=O)O)NC(=O)[C@@H](NC(=O)[C@H](Cc1ccccc1)NC(=O)[C@H](CC(=O)O)NC(=O)C(C)(C)NC(=O)[C@H](CCC(N)=O)NC(=O)[C@H](C)NC(=O)[C@H](CCCCNC(=O)COCCOCCNC(=O)COCCOCCNC(=O)CC[C@H](NC(=O)CCCCCCCCCCCCCCCCC(=O)O)C(=O)O)NC(=O)[C@H](CCCCN)NC(=O)[C@H](CC(=O)O)NC(=O)[C@H](CC(C)C)NC(=O)[C@H](CC(C)C)NC(=O)[C@@H](NC(=O)[C@H](CO)NC(=O)[C@H](Cc1ccc(O)cc1)NC(=O)[C@H](CC(=O)O)NC(=O)[C@H](CO)NC(=O)[C@@H](NC(=O)[C@H](Cc1ccccc1)NC(=O)[C@@H](NC(=O)CNC(=O)[C@H](CCC(=O)O)NC(=O)C(C)(C)NC(=O)[C@@H](N)Cc1ccc(O)cc1)[C@@H](C)O)[C@@H](C)O)[C@@H](C)CC)[C@@H](C)CC)C(=O)N[C@@H](CCC(=O)O)C(=O)NCC(=O)NCC(=O)N1CCC[C@H]1C(=O)N[C@@H](CO)C(=O)N[C@@H](CO)C(=O)NCC(N)=O
B3: Example 321 (peptide)
peptide: Y[Aib]EGTFTSDYSILLDKK([AEEA-AEEA-γGlu-C18 diacid])AQ[Aib]TFIEYLIEGGPSSG-NH2
modifications: N-terminus assumed
SMILES: CC[C@H](C)[C@H](NC(=O)[C@H](CC(C)C)NC(=O)[C@H](Cc1ccc(O)cc1)NC(=O)[C@H](CCC(=O)O)NC(=O)[C@@H](NC(=O)[C@H](Cc1ccccc1)NC(=O)[C@@H](NC(=O)C(C)(C)NC(=O)[C@H](CCC(N)=O)NC(=O)[C@H](C)NC(=O)[C@H](CCCCNC(=O)COCCOCCNC(=O)COCCOCCNC(=O)CC[C@H](NC(=O)CCCCCCCCCCCCCCCCC(=O)O)C(=O)O)NC(=O)[C@H](CCCCN)NC(=O)[C@H](CC(=O)O)NC(=O)[C@H](CC(C)C)NC(=O)[C@H](CC(C)C)NC(=O)[C@@H](NC(=O)[C@H](CO)NC(=O)[C@H](Cc1ccc(O)cc1)NC(=O)[C@H](CC(=O)O)NC(=O)[C@H](CO)NC(=O)[C@@H](NC(=O)[C@H](Cc1ccccc1)NC(=O)[C@@H](NC(=O)CNC(=O)[C@H](CCC(=O)O)NC(=O)C(C)(C)NC(=O)[C@@H](N)Cc1ccc(O)cc1)[C@@H](C)O)[C@@H](C)O)[C@@H](C)CC)[C@@H](C)O)[C@@H](C)CC)C(=O)N[C@@H](CCC(=O)O)C(=O)NCC(=O)NCC(=O)N1CCC[C@H]1C(=O)N[C@@H](CO)C(=O)N[C@@H](CO)C(=O)NCC(N)=O
B4: Example 323 (peptide)
peptide: YXEGTFTSDYSIXLDEKAQXAFIEYLIEGGPSSGAPPPS
modifications: Aib2, αMeL13, (2-[2-(2-Amino-ethoxy)-ethoxy]-acetyl)2-(γ-Glu)-CO-(CH2)16-CO2H on K17, Aib20, C-terminal NH2
B5: Example 328 (peptide)
peptide: B4 peptide with Y1F, E16K, G29A
modifications: Aib2, αMeL13, (2-[2-(2-Amino-ethoxy)-ethoxy]-acetyl)2-(γ-Glu)-CO-(CH2)16-CO2H on K17, Aib20, C-terminal NH2
B6: Example 333 (peptide)
peptide: B4 peptide with E16K, A21E
modifications: not fully specified; Aib2, αMeL13, (2-[2-(2-Amino-ethoxy)-ethoxy]-acetyl)2-(γ-Glu)-CO-(CH2)18-CO2H on K17, Aib20, C-terminal NH2
B7: Example 327 (peptide)
peptide: B4 peptide with Y1F, E16K
modifications: Aib2, αMeL13, (2-[2-(2-Amino-ethoxy)-ethoxy]-acetyl)2-(γ-Glu)-CO-(CH2)18-CO2H on K17, Aib20, C-terminal NH2
B8: Example 324 (peptide)
peptide: B4 peptide with E16K, E28A
modifications: Aib2, αMeL13, (2-[2-(2-Amino-ethoxy)-ethoxy]-acetyl)2-(γ-Glu)-CO-(CH2)1s-CO2H (so in the source); probably (CH2)18) on K17, Aib20, C-terminal NH2
B9: Example 332 (peptide)
peptide: B4 peptide with E28A
modifications: Aib2, αMeL13, (2-[2-(2-Amino-ethoxy)-ethoxy]-acetyl)2-(γ-Glu)-CO-(CH2)18-CO2H on K17, Aib20, C-terminal NH2
B10: Example 329 (peptide)
peptide: B4 peptide with Y1X, F6X, X13L, E16K
modifications: D-Tyr1, Aib2, αMeF6, (2-[2-(2-Amino-ethoxy)-ethoxy]-acetyl)2-(γ-Glu)-CO-(CH2)18-CO2H on K17, Aib20, C-terminal NH2
B11: Example 331 (peptide)
peptide: B4 peptide with A21E, E28A
modifications: Aib2, αMeL13, (2-[2-(2-Amino-ethoxy)-ethoxy]-acetyl)2-(γ-Glu)-CO-(CH2)18-CO2H on K17, Aib20, C-terminal NH2
B12: Example 325 (peptide)
peptide: B4 peptide with F6X, X13L, E16K
modifications: Aib2, αMeF(2F)6, (2-[2-(2-Amino-ethoxy)-ethoxy]-acetyl)2-(γ-Glu)-CO-(CH2)18-CO2H on K17, Aib20, C-terminal NH2
B13: Example 322 (peptide)
peptide: Y[Aib]EGTFTSDYSILLDKK([AEEA-AEEA-γGlu-C18 diacid])AQ[Aib]HFIEYLIEGGPSSG-NH2
modifications: N-terminus assumed
SMILES: CC[C@H](C)[C@H](NC(=O)[C@H](CC(C)C)NC(=O)[C@H](Cc1ccc(O)cc1)NC(=O)[C@H](CCC(=O)O)NC(=O)[C@@H](NC(=O)[C@H](Cc1ccccc1)NC(=O)[C@H](Cc1c[nH]cn1)NC(=O)C(C)(C)NC(=O)[C@H](CCC(N)=O)NC(=O)[C@H](C)NC(=O)[C@H](CCCCNC(=O)COCCOCCNC(=O)COCCOCCNC(=O)CC[C@H](NC(=O)CCCCCCCCCCCCCCCCC(=O)O)C(=O)O)NC(=O)[C@H](CCCCN)NC(=O)[C@H](CC(=O)O)NC(=O)[C@H](CC(C)C)NC(=O)[C@H](CC(C)C)NC(=O)[C@@H](NC(=O)[C@H](CO)NC(=O)[C@H](Cc1ccc(O)cc1)NC(=O)[C@H](CC(=O)O)NC(=O)[C@H](CO)NC(=O)[C@@H](NC(=O)[C@H](Cc1ccccc1)NC(=O)[C@@H](NC(=O)CNC(=O)[C@H](CCC(=O)O)NC(=O)C(C)(C)NC(=O)[C@@H](N)Cc1ccc(O)cc1)[C@@H](C)O)[C@@H](C)O)[C@@H](C)CC)[C@@H](C)CC)C(=O)N[C@@H](CCC(=O)O)C(=O)NCC(=O)NCC(=O)N1CCC[C@H]1C(=O)N[C@@H](CO)C(=O)N[C@@H](CO)C(=O)NCC(N)=O

Experiments:
[1] = target: T1, human gastric inhibitory peptide receptor (GIPR) (human, UniProt P48546 22-466); assay: cell-based or functional assay
T1 sequence (looked up): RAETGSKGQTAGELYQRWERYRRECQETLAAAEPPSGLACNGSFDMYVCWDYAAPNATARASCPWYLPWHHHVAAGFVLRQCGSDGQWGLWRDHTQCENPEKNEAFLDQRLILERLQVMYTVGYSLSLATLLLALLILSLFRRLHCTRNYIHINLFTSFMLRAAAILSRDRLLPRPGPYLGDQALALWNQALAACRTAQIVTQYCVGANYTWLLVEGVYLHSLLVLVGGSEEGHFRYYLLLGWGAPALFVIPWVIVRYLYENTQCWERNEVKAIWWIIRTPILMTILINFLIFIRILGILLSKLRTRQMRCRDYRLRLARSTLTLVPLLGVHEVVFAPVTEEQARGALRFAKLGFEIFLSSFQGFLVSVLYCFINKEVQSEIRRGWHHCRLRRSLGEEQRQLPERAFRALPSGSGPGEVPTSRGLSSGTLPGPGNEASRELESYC

[2] = target: human GLP-1 receptor (GLP-1R) (human, UniProt P43220 24-463); assay: cell-based or functional assay

Row | Binder | hGIPR cAMP EC50 ratio [1] | hGIPR cAMP Rel EC50 [1] [nM] | hGLP1R cAMP EC50 ratio [2] | hGLP1R cAMP Rel EC50 [2] [nM]
1 | B1 | 0.562 | 0.0919 | 0.255 | 0.199
2 | B2 | 0.241 | 0.161 | 0.224 | 0.397
3 | B3 | 0.517 | 0.0752 | 0.437 | 0.204
4 | B4 | 3.24 | 0.0251 | 1.32 | 0.0597
5 | B5 | 0.94 | 0.0965 | 0.575 | 0.117
6 | B6 | 2.31 | 0.0492 | 0.487 | 0.131
7 | B7 | 1.47 | 0.0548 | 0.191 | 0.27
8 | B8 | 2.13 | 0.0374 | 0.798 | 0.0926
9 | B9 | 0.949 | 0.0745 | 0.345 | 0.184
10 | B10 | 0.687 | 0.132 | 0.535 | 0.125
11 | B11 | 1.4 | 0.0547 | 0.808 | 0.0929
12 | B12 | 2.65 | 0.0301 | 1.16 | 0.0586
13 | B13 | 0.266 | 0.146 | 0.125 | 0.711
14 | F[Aib]EGTFTSDYSILLDKK([AEEA-AEEA-γGlu-C20 diacid])AQ[Aib]AFIEYLIEGGPSSGAPPPS-NH2 [Example 326] | 1.5 | 0.0754 | 1.4 | 0.0369
